Values belong to the binder of their own block, whether it stands above or below them.
Tests used:
[1] = biological target: T1, Toc64 (recombinant) (Pisum sativum); assay: from ref 7
T1 chain: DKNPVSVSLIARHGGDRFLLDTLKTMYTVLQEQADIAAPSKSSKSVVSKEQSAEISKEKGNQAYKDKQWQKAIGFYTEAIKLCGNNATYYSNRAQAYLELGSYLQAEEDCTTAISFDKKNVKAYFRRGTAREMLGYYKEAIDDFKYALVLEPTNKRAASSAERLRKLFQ

[2] = biological target: chaperone receptors within native chloroplast membranes (dynamic TIRE); assay: native chloroplast membranes
[3] = biological target: T2, OEP61 (recombinant) (Arabidopsis thaliana); assay: from ref 7
T2 chain: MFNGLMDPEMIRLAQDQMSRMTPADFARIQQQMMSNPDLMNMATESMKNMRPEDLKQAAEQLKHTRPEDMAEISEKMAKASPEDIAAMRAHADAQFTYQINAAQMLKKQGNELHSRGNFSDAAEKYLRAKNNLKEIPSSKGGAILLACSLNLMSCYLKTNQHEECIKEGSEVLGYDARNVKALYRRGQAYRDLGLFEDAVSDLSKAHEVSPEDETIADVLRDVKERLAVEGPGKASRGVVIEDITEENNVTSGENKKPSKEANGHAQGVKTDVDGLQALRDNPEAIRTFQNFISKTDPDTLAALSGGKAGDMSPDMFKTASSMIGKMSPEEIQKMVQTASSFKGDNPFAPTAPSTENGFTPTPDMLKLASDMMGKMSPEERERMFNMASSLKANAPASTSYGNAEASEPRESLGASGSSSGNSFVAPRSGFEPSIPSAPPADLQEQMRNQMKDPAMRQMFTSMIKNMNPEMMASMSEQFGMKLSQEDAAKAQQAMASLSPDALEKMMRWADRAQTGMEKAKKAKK

Ka [1]: 7.6e+08 M⁻¹
Kd [2]: 114 nM
B1: Hsp90-2 (At5g56030), full length (natural protein)
chain: not shown

Ka [3]: 1.03e+09 M⁻¹
Kd [2]: 109 nM
B2: Hsp70-1 (At5g02500), full length (natural protein)
chain: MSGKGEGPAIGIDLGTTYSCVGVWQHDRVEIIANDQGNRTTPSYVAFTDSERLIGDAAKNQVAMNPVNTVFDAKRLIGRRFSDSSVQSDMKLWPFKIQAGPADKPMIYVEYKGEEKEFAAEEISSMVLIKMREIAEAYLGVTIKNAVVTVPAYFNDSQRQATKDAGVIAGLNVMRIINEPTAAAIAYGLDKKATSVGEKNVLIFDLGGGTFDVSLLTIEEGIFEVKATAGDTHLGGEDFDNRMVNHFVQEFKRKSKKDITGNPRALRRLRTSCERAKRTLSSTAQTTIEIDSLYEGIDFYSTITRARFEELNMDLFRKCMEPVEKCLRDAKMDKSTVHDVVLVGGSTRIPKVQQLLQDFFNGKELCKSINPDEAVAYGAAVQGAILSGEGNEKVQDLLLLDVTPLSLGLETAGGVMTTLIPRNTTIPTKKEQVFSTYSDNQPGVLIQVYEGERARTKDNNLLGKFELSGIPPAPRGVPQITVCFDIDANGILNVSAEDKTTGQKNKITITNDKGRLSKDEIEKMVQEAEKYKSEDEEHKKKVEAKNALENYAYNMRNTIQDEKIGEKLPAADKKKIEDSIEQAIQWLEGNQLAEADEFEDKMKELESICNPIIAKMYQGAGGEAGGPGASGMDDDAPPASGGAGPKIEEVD

Reference: PMC3315527 (2012)
